PMC11408855, “The structure of the SufS–SufE complex reveals interactions driving protected persulfide transfer in iron-sulfur cluster biogenesis” (The Journal of Biological Chemistry, 2024)

Legend:
Assay in all cases: fluorescence polarisation; 100 nM BODIPY-FL-labeled EcSufE titrated with EcSufS; 50 mM Mops pH 8.0, 150 mM NaCl, 0.1 mg/ml bovine serum albumin, 25 °C, 30 min; absence of cysteine; apparent KD
Conditions in all cases: both partners purified
[1] = biological target: T1, D346A EcSufS, C-terminal his-tagged (Escherichia coli, UniProt P77444 1-406, D346A, PLP (pyridoxal 5'-phosphate) cofactor)
T1 construct: EcSufS of Escherichia coli, UniProt P77444, with D346A; also called D346A SufS; source: E. coli BL21(DE3)Δsuf, pET44, autoinduction, purified (Ni2+ HisTrap HP); not shown: His tag, C-terminal, kept
T1 sequence: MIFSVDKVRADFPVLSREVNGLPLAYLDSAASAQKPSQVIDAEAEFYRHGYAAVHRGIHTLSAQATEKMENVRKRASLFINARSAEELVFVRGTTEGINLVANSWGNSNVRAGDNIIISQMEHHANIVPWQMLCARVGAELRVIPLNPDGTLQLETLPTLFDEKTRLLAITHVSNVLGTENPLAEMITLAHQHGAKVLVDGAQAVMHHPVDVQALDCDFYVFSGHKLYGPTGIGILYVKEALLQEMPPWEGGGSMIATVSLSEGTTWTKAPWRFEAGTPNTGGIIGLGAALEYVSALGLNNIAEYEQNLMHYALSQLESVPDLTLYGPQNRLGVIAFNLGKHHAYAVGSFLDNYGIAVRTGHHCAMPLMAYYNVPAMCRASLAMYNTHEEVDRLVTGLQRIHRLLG

[2] = biological target: T2, Y345A EcSufS, C-terminal his-tagged (Escherichia coli, UniProt P77444 1-406, Y345A, PLP (pyridoxal 5'-phosphate) cofactor)
T2 construct: EcSufS of Escherichia coli, UniProt P77444, with Y345A; also called Y345A SufS; source: E. coli BL21(DE3)Δsuf, pET44, autoinduction, purified (Ni2+ HisTrap HP); not shown: His tag, C-terminal, kept
T2 sequence: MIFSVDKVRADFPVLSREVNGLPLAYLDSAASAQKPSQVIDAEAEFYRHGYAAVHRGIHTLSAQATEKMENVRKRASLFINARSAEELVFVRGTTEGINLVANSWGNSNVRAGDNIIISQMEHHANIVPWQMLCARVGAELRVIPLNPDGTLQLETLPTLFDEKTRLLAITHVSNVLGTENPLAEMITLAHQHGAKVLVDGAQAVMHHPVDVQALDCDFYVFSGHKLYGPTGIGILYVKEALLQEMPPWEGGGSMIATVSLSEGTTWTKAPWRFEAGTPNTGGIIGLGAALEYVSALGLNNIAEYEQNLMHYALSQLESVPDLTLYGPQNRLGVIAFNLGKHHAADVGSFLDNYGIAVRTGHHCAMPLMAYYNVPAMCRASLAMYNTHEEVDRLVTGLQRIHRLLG

[3] = biological target: T3, EcSufS, C-terminal his-tagged (wild type) (Escherichia coli, UniProt P77444 1-406, PLP (pyridoxal 5'-phosphate) cofactor)
T3 construct: EcSufS, cysteine desulfurase SufS of Escherichia coli, UniProt P77444; the gene was cloned; also called WT EcSufS; cysteine desulfurase SufS; source: E. coli BL21(DE3)Δsuf, pET44, autoinduction, purified (Ni2+ HisTrap HP); not shown: His tag, C-terminal, kept
T3 sequence: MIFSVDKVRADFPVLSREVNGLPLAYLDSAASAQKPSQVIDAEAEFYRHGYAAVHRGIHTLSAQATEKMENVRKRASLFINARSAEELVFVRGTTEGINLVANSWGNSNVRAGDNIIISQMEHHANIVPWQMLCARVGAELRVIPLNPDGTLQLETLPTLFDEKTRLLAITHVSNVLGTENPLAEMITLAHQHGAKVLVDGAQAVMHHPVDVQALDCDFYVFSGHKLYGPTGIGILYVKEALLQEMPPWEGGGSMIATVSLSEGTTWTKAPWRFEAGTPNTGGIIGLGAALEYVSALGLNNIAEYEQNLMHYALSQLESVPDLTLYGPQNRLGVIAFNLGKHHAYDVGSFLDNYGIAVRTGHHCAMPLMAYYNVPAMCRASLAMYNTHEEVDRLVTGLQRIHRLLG

[4] = biological target: T4, F350A EcSufS, C-terminal his-tagged (Escherichia coli, UniProt P77444 1-406, F350A, PLP (pyridoxal 5'-phosphate) cofactor)
T4 construct: EcSufS of Escherichia coli, UniProt P77444, with F350A; also called F350A SufS; source: E. coli BL21(DE3)Δsuf, pET44, autoinduction, purified (Ni2+ HisTrap HP); not shown: His tag, C-terminal, kept
T4 sequence: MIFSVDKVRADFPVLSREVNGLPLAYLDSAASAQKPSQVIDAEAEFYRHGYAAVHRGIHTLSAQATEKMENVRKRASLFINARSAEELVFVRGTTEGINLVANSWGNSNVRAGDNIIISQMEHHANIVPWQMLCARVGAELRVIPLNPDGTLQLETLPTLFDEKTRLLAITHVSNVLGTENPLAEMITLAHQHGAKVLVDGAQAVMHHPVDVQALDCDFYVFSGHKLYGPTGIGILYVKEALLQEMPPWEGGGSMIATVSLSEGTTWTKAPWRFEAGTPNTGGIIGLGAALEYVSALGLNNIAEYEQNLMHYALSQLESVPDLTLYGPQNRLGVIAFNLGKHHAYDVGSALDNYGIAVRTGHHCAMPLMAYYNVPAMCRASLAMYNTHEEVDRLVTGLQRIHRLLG

B1: BODIPY-FL-labeled C51A/E107C EcSufE (natural protein, Escherichia coli)
chain: MALLPDKEKLLRNFLRCANWEEKYLYIIELGQRLPELRDEDRSPQNSIQGAQSQVWIVMRQNAQGIIELQGDSDAAIVKGLIAVVFILYDQMTPQDIVNFDVRPWFCKMALTQHLTPSRSQGLEAMIRAIRAKAAALS
modifications: BODIPY-FL maleimide label (labeling efficiency 60 to 80%)
notes: EcSufE, transpersulfurase SufE of Escherichia coli, UniProt P76194, with C51A and E107C; also called "WT" EcSufE (double mutant background); C51A/E107C EcSufE control
In the case of B1, the Kd [1] is reported as > 40 µM, the Kd [2] is reported as > 20 µM and the Kd [3] is reported as 5.2 µM. The Kd [4] was > 40 µM.
